The results in this text go back to the supplement of paper PMC11502859.

The test system of this data set is HEK293T. The data set is described as follows: median enrichment of reporter reads in eGFP-reduced (low/intermediate) vs eGFP-high sorted cells (eGFP-extension fusion abundance) (ratio); higher = stronger loss of eGFP-fusion protein abundance (more destabilising extension).

Values joined by “and” are separate entries in the source; they are usually repeats but may differ in a detail not shown here. Identical values can stand only once.
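Also: lentiviral eGFP-IRES-mCherry reporter pool sorted by FACS 96 h post-transduction, gated on mCherry-high cells, Illumina read counts normalized per million, median across four biological replicates.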

For “CQLLHILGPCLFSQDRLLKAEEPVLGAPSQTPKTCFHVPRSLLTSPNKGP [PSENEN]”, the median enrichment is 26.4.
Take SNQFLGLTAM [BTN2A1]: the median enrichment was 0.367.
In the case of “QGPGLRREALSQRLPHPSPLAFNSVASCSPAAEPPRIRLHVTLKLTNFHGPH [FYN]”, the median enrichment was found to be 20.4.
In the case of YMSEVQTLKKLAF [SLC7A13] it was 4.37.
As to KQEWQSKLKL [UHRF1BP1L], the median enrichment came out at 0.342.
Consider “RAWLPACTPPLPPHESPPAGYRGRHAPGASPALGTTCLPAPPGPGPPAAPHFRRGLEQGEAGLWGAVREIYWGPQILL [ECEL1]”, for which the median enrichment worked out at 4.03.
In the case of “RCDQVALGRDPRVFMRHLKLIKELRLELIWCSP [KCNC2]”, the median enrichment was determined as 10.9.
Consider FANCD2, for which the median enrichment was 5.79 and 4.35.
For RGIRLPGNSGTVALADHLQHPAS [SLC2A10], the median enrichment turned out to be 0.279.
YGVAQGAPGRGPGPRTL [TMEM38A]: the median enrichment was 0.588.
“YSPTPTAAYLHFQFLRGTEASSQHAANLWSLILTPSPTPVVGLYYV [KIF5A]”: the median enrichment was 6.66.
In the case of REKGNAQERNTVSPISDLDSTGYMEEI [OR8B8] it was 0.597; in that of WKRD [RER1], 0.349.
As for YNFFHLRNYCDL [CHD6], the median enrichment amounted to 19.1.
In the case of QNLREPVV [CEP89] it was 0.464; in that of FFFFFFFFF [Phe09], 9.48; in that of WRGARAPWSL [CEP104], 1.95.
“YKGAEEGWSGWAGGPTSSPQHLPPTQLGQRGQDVCLPLRDRCLCPHTATGV [SEMA3G]”: the median enrichment stood at 2.63.
For “WHLFPPCLPLPLFWGHPFPPWLSPLKVSPPLGAFLEPCVSEWSPHSIVPRVCPQTLHLALLGRN [SNRPA]”, the median enrichment worked out at 10.5.
As for RSSTRDWKDHKLKWRKDPQDT [FCGR3B], the median enrichment came out at 2.73.
Consider YGGPVGEPGDSRV [CHRND], for which the median enrichment was found to be 0.405.
With RSHL [BBOX1], the median enrichment was 11.7.
As for RVEPTSLPSQQARN [TMEM143], the median enrichment came out at 0.919.
Take YPLLKECEI [NCOA1]: the median enrichment came out at 0.498.
Consider “WADPGYVPYPRGLSIDRDYIITWLEVKGSIQVLHLVLPCLLSDHSDGLMWLLMWNCRRVQRRVCNKAIGKHTGAFPSPSGPRP [HS3ST3B1]”, for which the median enrichment came out at 4.31.
For the substance “SPHPAPPPPRPTRRPPDSSPGASSATPSLHPWGPSPPACTEQGLGVSWEA [ITGB4]”, the median enrichment is 0.621.
Turning to QLLVPPSLLVIRFPRLTP [PITRM1], the median enrichment is 9.11.
In the case of QEWKSGSSRYSFMLCSCEQSTKFE [LMLN], the median enrichment came out at 7.78.
Consider “SGLWPGTRSHLAGRWLLPQFSLENPQLSTHPLPQNQFQ [RBM42]”, for which the median enrichment came to 9.36.
In the case of SVS [PACSIN3] it was 0.33; in that of “SPQDQGKEDGRTGAKLVGGRGGGGRDDRPWMCPQGPRSEVSTVLPARAPVPPLAATPSPIISFAPRLLRGAPVLAPAPTSAPD [FOXP3]”, 1.18; in that of “QTGFLSSLKRLLCLRKSICCVSLASGSRTDLQLPNWILLPRSCSEVSFYHSAL [HLA-DPB1]”, 7.45.
Take WGGLN [OR3A1]: the median enrichment was 1.04.
Consider RESAGIEQSSPAQVSSLP [ZNF622], for which the median enrichment worked out at 0.239.
Consider AAA [Ala03], for which the median enrichment stood at 0.262.
For RRSPVCPVKTEIN [TM9SF2], the median enrichment came to 0.793.
YVFVIFNCSML [CRISP1]: the median enrichment was 8.9.
In the case of SSSSSSSS [Ser08] it was 0.512.
Take SHVRNLSIK [AGTR1]: the median enrichment amounted to 0.587.
On to YKYTLTERDNRQRGSVAEDPLLCLY [TNIP3], for which the median enrichment came out at 7.19.
In the case of RSGTGRLLIEIHLLGGTGFP [MRNIP] it was 8.41; in that of LANAS [NXF1], 0.411; in that of SWHSSPHTCSQAQMEVP [ACTL6B], 0.404.
As for SSSSSSSSSS [Ser10], the median enrichment is 0.553.
As to “REQQMELWERGEQWGYRESSSALPLGQPHLPAVSPGHFSTSQVEVLQGPAATCIRRTSFSA [SPATA19]”, the median enrichment stood at 4.52.
Regarding LHSL [ZNF443], the median enrichment was determined as 0.555.
With HHHHHHHHHH [His10], the median enrichment worked out at 0.464.
In the case of RCFRRLFFSSRSCHLIILH [COMMD10] it was 7.76; in that of QPWGWTVDPTSLREGGMAGCEDNSS [POLR3H], 0.421; in that of “DISSYLTMLSLLGAVLVGPGPCIMPRSQLQGPSWGPGWALGSGPCCSSPSHQPVPVVRKPGLLSSFLLGECQTQGPSTGLGWE [BAP1]”, 5.92.
Take LRRIQICVCVCVCVCVCVCVCVSLCLCIG [KIFC1]: the median enrichment is 24.3.
Turning to CAGAFVAISL [MSI2], the median enrichment amounted to 8.28.
As for “LAASRATSPHVGCPSWGREGQSVGWLGRGLALVGQPTPQPERA [RBM10]”, the median enrichment is 8.96.
Take KLICKIRNWTHIALFECEVR [RNF182]: the median enrichment is 12.7.
Regarding “KSIIILQHLRVWQLFVWAFAHAMPSLPSPTPTRGDS [SPATA12]”, the median enrichment is 8.97.
For YQIYRVEGLIGEGRSSGSTQELDWKRSL [SON], the median enrichment came out at 9.11.
In the case of “WMSMSEGKENFGHQNPAPSELKELIYFMKLILLCVCSWC [GALNT15]” it was 26.8; in that of EQPGTAFSFPAEYC [RBM34], 0.275.
Regarding YTPLFVVHYFD [KCNQ2], the median enrichment turned out to be 7.27.
With KEENKQNQPPHHRVLQQDMHTIGA [CDCA7L], the median enrichment worked out at 11.9.
In the case of RMKSTASE [SERPINI2] it was 0.64; in that of QSSYPLEEDCFQII [KDSR], 0.764; in that of “SITLILWKSEQAVAVFHSSSCCVQLLPSQPFNKIILKCYPSALPFNGKMKGSDNTGGPNFVPVLCVPYLSVPVYRLCKSLV [RABL3]”, 6.24.
In the case of SESTGSSQTYRCPAR [FAM221B] it was 0.476.
In the case of LSVCHR [DPYS] it was 1.17.
In the case of WWWWWWWWWW [Trp10], the median enrichment is 4.65.
Turning to “LPVGCFTSTPAPPASNAHSTPNTTPCPTNAHSRAW [C1QB]”, the median enrichment is 1.02.
In the case of LGLGRAHSAG [ATPAF2] it was 10; in that of WDGR [ZNF772], 0.288; in that of LKKKKKKALAFSCLFC [PCDH17], 25.4.
In the case of “CPLSATHVVPSLPSFHLDVPPSPTSAPLLPRLDLKPELPLNLEYATYNMQAAKHPFCTRRLEWNCHVQ [PRR20A]” it was 5.57.
Regarding RGKTTGRPESGPARCSGEFLISSHWGN [BPIFB2], the median enrichment amounted to 0.953.
Turning to WGPGRGPGAVGT [INSYN1], the median enrichment was 5.06.
As for MMMMMMMMMM [Met10], the median enrichment came out at 10.8.
Take GEKSYKCKECGKPLDDPQTLMNMRKFIL [ZNF141]: the median enrichment came to 6.09.
GPPSTSQQQD [DENND5A]: the median enrichment was determined as 0.577.
In the case of SCRVFSSFFLLQEFVVT [MMP16] it was 3.12; in that of RLHRNCW [OR2Z1], 3.02.
Turning to “WPRLSTCHLLACLTLRTHLPGPSLFHPREAELPKTQVFSYLFPILRGFP [ZDHHC18]”, the median enrichment amounted to 17.8.
In the case of GGFFC [GBP7] it was 0.518; in that of YRDLQRPGQK [PEG10], 12; in that of “WMVLSAGSPLRSGQRKMGGCSSPPQHNDQPPS [NLRP12]”, 13.1.
Turning to SKACILFEDIYKAI [KRT34], the median enrichment amounted to 2.29.
Turning to LTLQAGTVLLLSLQYIR [GTPBP2], the median enrichment stood at 9.07.
With REDHGLSVPQSQLPDG [TBC1D10C], the median enrichment was 1.36.
Regarding SAHSPLSQDMDLELRMGLS [IMP4], the median enrichment turned out to be 0.513.
As to WTAERTMHPSAWWSLRDRSDDPRRLWRTI [LILRA2], the median enrichment turned out to be 6.78.
As to YWAPSL [MSN], the median enrichment came out at 2.04.
Turning to “LKTPHPSLLECVWPFSSFSWQHQLGCFLCVWPQVSK [DUSP6]”, the median enrichment is 6.83.
As for WALHPARS [IQCD], the median enrichment was found to be 0.961.
As to CPADTLPPPAPSTLSWAPPYLNL [NGF], the median enrichment is 0.552.
As for “QPPAILPHPPPSPPVSTWSALPHPPPTELGCITFFHLKERSRF [MROH5]”, the median enrichment was found to be 4.47.
For the substance EEEEEE [Glu06], the median enrichment amounted to 1.59.
In the case of KKVGTMRGVGYP [Degron APPBP2] it was 4.39; in that of QAVFNLLLNWVFLALILIINHNL [FAM47A], 5.56.
Regarding RSRVFQVPGPWL [MYL4], the median enrichment was determined as 1.67.
For the substance TTTTTTTT [Thr08], the median enrichment was 0.414.
On to STL [PGRMC2], for which the median enrichment is 0.374.
Take “LPAIDNVAGTSASPLQPSNFPGTLLSAPEEGAVVSCCLWAPASSAVLGSVLLASVNNKATVCSGICGFVHSVTCHLHRALMAG [MCM5]”: the median enrichment was 5.35.
In the case of RHSELLAVEEHHAYL [YTHDC2] it was 0.354; in that of YINKIRRGSETEKEKAKDWFVCLISFC [NR2F2], 9.01.
In the case of YILLKVF [LY75] it was 4.38; in that of YEPEYSR [GBP4], 0.833; in that of “YMCPTDPGTFLPQCCACKYTVKLSLYHFDRGED [GLRA2]”, 11.1.
In the case of LLSITKVYSKIIF [HNMT] it was 7.95.
“SVHQLPAPALAPTPSSLKHPPAHCGQLCATRAHGAPPVL [BAIAP3]”: the median enrichment stood at 1.3.
Take SGQGQPRD [SLC5A5]: the median enrichment was 0.35.
Regarding SSSSS [Ser05], the median enrichment was found to be 0.298.
Take EFILMKENVTKEMHEM [MYH4]: the median enrichment worked out at 2.79.
In the case of WWWWWWWW [Trp08] it was 4.57.
For YNIVYVFCHL [KIAA1586], the median enrichment amounted to 8.8.
On to “SEVRACAMCETGKLGAQFEFFLFFFFLSTKNTLMVNTGQNQERMCSFQGLGQNL [GAB3]”, for which the median enrichment worked out at 7.14.
